Target: human alpha thrombin (human, UniProt P00734;P00734 328-363;364-622)
Experiment: electrochemical aptamer sensor (square-wave voltammetry); 1-500 nM thrombin; 100 Hz optimal; concentration-dependent peak current decrease; LOD 14.7 nM (not a Kd); Electrodes soaked in PBS before measurement (137 mM NaCl, 2.7 mM KCl, 10 mM Na2HPO4, 1.8 mM KH2PO4, pH 7.4); thrombin assay buffer and temperature not given in

**Q.** Does TAAGTTCATCTCCCCGGTTGGTGTGGTTGGT (structured_DNA, 5' SH-(CH2)6; 3' amine conjugated to arPES) [PES-modified TBA (arPES-TBA)] bind?
**A.** Result: binds

— publication PMC8914840
